Experimental data published in patent US20050171004A1, “Use of cardiotrophin-1 to promote wound healing and counteract overt fibrosis” (priority 2003, published 2005).

How the values were obtained:
cardiac fibroblasts [1] = test: 3H-thymidine incorporation (DNA synthesis) proliferation assay; type: cell-based, rat
Method: DNA synthesis was measured by uptake of ^3H-thymidine as previously described (Saward and Zahradka, 1997, Mol Cell Biochem 176: 53-59) with modification. Briefly, 2.5×10^4 cells (counted with a hemacytometer) in DMEM/F12 with 10% FBS were loaded into each well of 24-well culture plates, allowed to attach overnight and rendered quiescent in serum-free DMEM with 100 μM ascorbate for 24 hours. S-phase re-entry in response to CT-1 was measured in two ways: pulse labeling with ^3H-thymidine for 30 minutes every 6 hours, or labeling for the last 30 minutes of 6 or 12 hour incubation. DNA in cell lysate was precipitated with cold 20% trichloroacetic acid (TCA) and filtered through GF/A filters (Fisher). Beta emission from the dried filers was measured with Cytoscint scintillation fluid (ICN Pharmaceuticals, Costa Mesa, Calif.) and a scintillation counter (LS6500, Beckman Coulter, Fullerton, Calif.).

cardiac fibroblasts [2] = test: Western analysis of myosin light chain phosphorylation; type: cell-based, rat; conditions: CT-1 10 ng/mL
Method: Protein concentrations of tissue and cell lysates were determined by the BCA method (Smith et al., 1985, Anal Biochem 150: 76-85). Proteins were separated by 8-12% SDS-PAGE and transferred to PVDF membrane (Roche, Indianapolis, Ind.) for 1 hour at 300 mA for small proteins or for 2 hours at 500 mA for proteins greater than 100 kDa. Membranes were blocked with 5% non-fat skim milk in tris-buffered saline containing 0.2% Tween 20 (TBST). Proteins were visualized with ECL Plus (Amersham) after probing with primary and secondary antibodies. Band intensity was quantified using a CCD camera imaging densitometer (GS670, Bio-Rad Laboratories (Canada) Ltd. Mississauga, Ontario).
The infarct zone is repopulated by interstitial fibroblasts that infiltrate the scar after MI. […] Similar results were obtained when using the Costar Transwell® system (data not shown). To determine how the chemotactic response is transduced, we used specific inhibitors of intracellular signaling pathways. […] This effect could be blunted by co-incubation with AG490 (FIG. 22). […] Since activation of myosin motors is required for effective cell migration, and CT-1 induced migration could be inhibited by co-incubation with a myosin light chain kinase inhibitor, we sought to determine the effect of CT-1 on the phosphorylation status of myosin light chain. Myosin light chain regulates the ATPase activity of myosin heavy chain, and thus overall contractile activity. […] Myosin light chain phosphorylation could be prevented by co-incubation with ML-7 or W7 but not AG490 or PP2 (FIG. 25b).

B1: cardiotrophin-1 (protein, UniProt Q16619 1-201, looked up)
Cardiotrophin-1: MSRREGSLEDPQTDSSVSLLPHLEAKIRQTHSLAHLLTKYAEQLLQEYVQLQGDPFGLPSFSPPRLPVAGLSAPAPSHAGLPVHERLRLDAAALAALPPLLDAVCRRQAELNPRAPRLLRRLEDAARQARALGAAVEALLAALGAANRGPRAEPPAATASAASATGVFPAKVLGLRVCGLYREWLSRTEGDLGQLLPGGSA
notes: gp130 signaling cytokine of the LIF or IL-6 superfamily; 201 amino acids as a mature protein, 21.5 kDa
- CT-1 dose of peak 3H thymidine incorporation (maximal DNA synthesis) (cardiac fibroblasts [1]; 6 or 12 hours incubation): 10 to 20 ng/mL
- lowest CT-1 concentration with elevated incorporation of 3H thymidine (cardiac fibroblasts [1]; 6 or 12 hours incubation): 1 ng/mL
- pathway dependence of CT-1 induced cell proliferation (DNA synthesis) (cardiac fibroblasts [1]; pretreatment with inhibitors, CT-1 10 ng/mL for 12 hours): dependent on Jak, P13-K, MAPK, and Src kinases
- time to S-phase re-entry after addition of CT-1 (cardiac fibroblasts [1]; quiescent cells, 10 ng/mL CT-1, 3H-thymidine pulse labeling): ≤ 6 h
- phosphorylation of myosin light chain at threonine 18/serine 19 (cardiac fibroblasts [2]): induced phosphorylation
